Measurements reported in paper PMC7593965.

Molecular target: isolated C-terminal domain of FusB (Pectobacterium carotovorum LMG2410)
Test: ITC; MicroCal iTC200, 25°C, 10 mM Tris-HCl (pH 7.5)-150 mM NaCl; titrant (FusANTR-GFP, GFP or FerSp) injected in 2 μl steps into FusBCTD, FusBCTD R176K/R177K or TonBCTD in the cell

Substance | Kd
N-terminal region of FusA (residues 21 to 66) fused to green fluorescent protein (from UniProt C6DG80 21-66) (domain or fragment) | 57 µM
spinach ferredoxin (from UniProt P00221 51-147) (natural protein) | 8.7 µM
